From patent US7994123B2, “Hybrid proteins with ErbB4 extracellular domain and neuregulin heparin-binding domain for targeting” (Wayne State University, priority 2004, dated 2011) come the findings set out here.

Test [1] concerns erbB receptor phosphorylation (p185) in L6 cells. Put plainly: L6 assay: block of NRG-induced erbB receptor phosphorylation (p185). Format: cell-based. The conditions noted are these: comparable amounts of antagonist with 50 pM NRG (IG-EGF form), 45 min. The protocol:
(§1) 4. Cell culture: The L6 cells were cultured in DMEM supplemented with 10% fetal calf serum, 1 mM L-glutamine and 1000 U/ml penicillin/streptomycin at 37° C. in 10% CO2 incubator. The HEK293 cells were cultured in DMEM with 10% fetal calf serum, 1 mM L-glutamine, 2 mM sodium pyruvate, 0.1 mM non-essential amino acids, 1000 U/ml penicillin/streptomycin at 37° C. in 10% CO2 incubator. The selective antibiotics Geneticin 200 μg/ml (Gibco-Invitrogen) was added to the cell cultures of stably transfected HEK293 cells harboring the NRG antagonists. 5. Stable expression of NRG antagonists in HEK293 cells: HEK293 cells were cultured in […] flasks to 80% confluence and transfected with the four NRG antagonist constructs using lipofectamine 2000 (Invitrogen Life Science) as instructed. The antibiotic Geneticin was then added at a concentration of 400 μg/ml to the transfected HEK293 cells to select the positive antagonist transfected cells. After three weeks of Geneticin selection, the transfected HEK293 cells were diluted and plated in 96 well plates to yield single positive clones. The single clones that expressed the highest levels of antagonists (confirmed by western blot using HA antibody) were then maintained in culture media with 200 μg/ml Geneticin. Optimem I (Gibco-Invitrogen) was applied to the stably transfected NRG antagonist cell lines at 37° C. in 10% CO2 incubator for 2 days. The conditioned Optimem I media was then used in the following experiments. 6. Heparin column binding: The conditioned media containing the four NRG antagonists was passed through the heparin column to allow binding to heparin. The excessive unbound antagonist proteins were washed off by 1×PBS twice. The antagonist proteins were then eluted by increasing concentration of NaCl (0.25, 0.3, 0.4, 0.5, 0.6 and 1M). The flow through solution from each step was examined by anti-HA western blots, as described later, to determine heparin binding ability of the antagonists. 7. Purification and quantitation of recombinant proteins: The NRG antagonists were purified by anti-HA affinity matrix (3F10) (rat mAb) according to manufacturer's instructions. Briefly, the column was equilibrated with buffer containing 20 mM Tris pH 7.5, 0.1 M NaCl, 0.1 M EDTA, and each antagonist in conditioned medium was applied individually to the anti-HA affinity matrix. Excess unbound antagonist proteins were washed with 20 volume of washing buffer (20 mM Tris pH 7.5, 0.1 M NaCl, 0.1 M EDTA and 0.05% Tween 20). The bound NRG antagonists were eluted with 0.1 M glycine (pH 2). The purified recombinant protein was then quantified using a BioRad Protein Assay kit (Bio-Rad, Hercules, Calif.) 8. Silver stain: Both the conditioned media and the purified NRG antagonists were resolved on 7.5% reducing SDS-polyacrylamide gels. The gel was fixed with 30% ethanol and 10% acetic acid for 30 min. 10% ethanol and ultrapure water were used subsequently to wash the gel before staining with SilverSNAP stain solution with enhancer for 30 min. The gel was then developed using SilverSNAP developer solution with enhancer. 5% acetic acid was used to stop the reaction when the desired band intensity was reached. The gel was dried on filter paper using a vacuum gel dyer. 9. […] Positive control L6 cells were treated with 50 pM NRG alone. L6 cell lysates were prepared and run on 5% SDS-PAGE gel. Western blots of erbB receptor phosphorylation were performed using 4G10 antibody. 10. Western blot: Western blots were performed on both conditioned NRG antagonist media and the antagonist-treated L6 cells. The antagonist proteins and the L6 cells were solubilized in SDS sample buffer and boiled for 5 min as described above (see also Li et al., supra). The NRG antagonists run on 7.5% SDS-PAGE gel were detected by anti-HA mAb HA.11. Phosphotyrosine mAb 4G10 was used to detect phosphorylated erbB receptor (p185) in L6 cell western blot analysis following resolution on overrun 5% reducing SDS-polyacrylamide gels. […]

The nature of the next test: Heparin column binding. The conditions noted are these: for binding to heparin column: conditioned media, anti-HA western blot of flow through and elution; for NaCl concentration needed to elute from heparin column: elution with increasing NaCl (0.25-1 M). The protocol:
as §1

Where “and” joins values, the source holds several entries; their conditions need not be identical. Identical values can stand only once. A value given as a limit tells only on which side of the number the result lay.

B1: B4-HA: extracellular domain of erbB4 expressed alone without the HBD, HA tag (control) (protein)
chain: VCAGTENKLSSLSDLEQQYRALRKYYENCEVVMGNLEITSIEHNRDLSFLRSVREVTGYVLVALNQFRYLPLENLRIIRGTKLYEDRYALAIFLNYRKDGNFGLQELGLKNLTEILNGGVYVDQNKFLCYADTIHWQDIVRNPWPSNLTLVSTNGSSGCGRCHKSCTGRCWGPTENHCQTLTRTVCAEQCDGRCYGPYVSDCCHRECAGGCSGPKDTDCFACMNFNDSGACVTQCPQTFVYNPTTFQLEHNFNAKYTYGAFCVKKCPHNFVVDSSSCVRACPSSKMEVEENGIKMCKPCTDICPKACDGIGTGSLMSAQTVDSSNIDKFINCTKINGNLIFLVTGIHGDPYNAIEAIDPEKLNVFRTVREITGFLNIQSWPPNMTDFSVFSNLVTIGGRVLYSGLSLLILKQQGITSLQFQSLKEISAGNIYITDNSNLCYYHTINWTTLFSTINQRIVIRDNRKAENCTAEGMVCNHLCSSDGCWGPGPDQCLSCRRFSRGRICIESCNLYDGEFREFENGSICVECDPQCEKMEDGLLTCHGPGPDNCTKCSHFKDGPNCVEKCPDGLQGANSFIFKYADPDRECHPCHPNCTQGCNGPTSHDCIYYPWTGHSTLPQHAKN
modifications: left off: small tags and cut ends
As to B1, the “effect on NRG-induced p185 erbB receptor phosphorylation” value (from here on “effect”) in test [1] is listed as “little effect”. For the same molecule, in “Heparin column binding”, the “binding to heparin column” value was “did not”.

B2: HBD-S-B4-HA: fusion polypeptide: NRG heparin-binding domain, glycosylated spacer, erbB4 extracellular domain, C-terminal HA tag (protein)
chain: QSGYKKKERGSGKKPESAAGSQSPALPPRLKEMKSQESAAGSKLVLRCETSSEYSSLRFKWFKPNGNELNRKNKQNIKIQKKPGKSELRINKASLADSGEYMCKVISKLGNDSASANITIVESNEIITGMPASTEGAYVSSESPIRISVSTEGANTSSSTSTSTTGTSGTQSVCAGTENKLSSLSDLEQQYRALRKYYENCEVVMGNLEITSIEHNRDLSFLRSVREVTGYVLVALNQFRYLPLENLRIIRGTKLYEDRYALAIFLNYRKDGNFGLQELGLKNLTEILNGGVYVDQNKFLCYADTIHWQDIVRNPWPSNLTLVSTNGSSGCGRCHKSCTGRCWGPTENHCQTLTRTVCAEQCDGRCYGPYVSDCCHRECAGGCSGPKDTDCFACMNFNDSGACVTQCPQTFVYNPTTFQLEHNFNAKYTYGAFCVKKCPHNFVVDSSSCVRACPSSKMEVEENGIKMCKPCTDICPKACDGIGTGSLMSAQTVDSSNIDKFINCTKINGNLIFLVTGIHGDPYNAIEAIDPEKLNVFRTVREITGFLNIQSWPPNMTDFSVFSNLVTIGGRVLYSGLSLLILKQQGITSLQFQSLKEISAGNIYITDNSNLCYYHTINWTTLFSTINQRIVIRDNRKAENCTAEGMVCNHLCSSDGCWGPGPDQCLSCRRFSRGRICIESCNLYDGEFREFENGSICVECDPQCEKMEDGLLTCHGPGPDNCTKCSHFKDGPNCVEKCPDGLQGANSFIFKYADPDRECHPCHPNCTQGCNGPTSHDCIYYPWTGHSTLPQHAKN
modifications: left off: small tags and cut ends
Take B2: in test [1], the “effect” value is listed as “dramatically reduced erbB receptor activation”. In addition, in “Heparin column binding”, the “binding to heparin column” value was “bound the heparin column”; the “NaCl concentration needed to elute from heparin column” value is > 1 M and 1 M.

B3: HBD-B4-HA: fusion polypeptide: NRG heparin-binding domain N-terminal to erbB4 extracellular domain, no spacer, HA tag (protein)
chain: SAAGSQSPALPPRLKEMKSQESAAGSKLVLRCETSSEYSSLRFKWFKNGNELNRKNKPQNIKIQKKPGKSELRINKASLADSGEYMCKVISKLGNDSASANITIVEVCAGTENKLSSLSDLEQQYRALRKYYENCEVVMGNLEITSIEHNRDLSFLRSVREVTGYVLVALNQFRYLPLENLRIIRGTKLYEDRYALAIFLNYRKDGNFGLQELGLKNLTEILNGGVYVDQNKFLCYADTIHWQDIVRNPWPSNLTLVSTNGSSGCGRCHKSCTGRCWGPTENHCQTLTRTVCAEQCDGRCYGPYVSDCCHRECAGGCSGPKDTDCFACMNFNDSGACVTQCPQTFVYNPTTFQLEHNFNAKYTYGAFCVKKCPHNFVVDSSSCVRACPSSKMEVEENGIKMCKPCTDICPKACDGIGTGSLMSAQTVDSSNIDKFINCTKINGNLIFLVTGIHGDPYNAIEAIDPEKLNVFRTVREITGFLNIQSWPPNMTDFSVFSNLVTIGGRVLYSGLSLLILKQQGITSLQFQSLKEISAGNIYITDNSNLCYYHTINWTTLFSTINQRIVIRDNRKAENCTAEGMVCNHLCSSDGCWGPGPDQCLSCRRFSRGRICIESCNLYDGEFREFENGSICVECDPQCEKMEDGLLTCHGPGPDNCTKCSHFKDGPNCVEKCPDGLQGANSFIFKYADPDRECHPCHPNCTQGCNGPTSHDCIYYPWTGHSTLPQHAKN
modifications: left off: small tags and cut ends
Regarding B3, in test [1], the “effect” value is “little effect”. In “Heparin column binding”, the “binding to heparin column” value is “did not”.

B4: B4-HBD-HA: fusion polypeptide: erbB4 extracellular domain with NRG heparin-binding domain C-terminal, HA tag (protein)
chain: VCAGTENKLSSLSDLEQQYRALRKYYENCEVVMGNLEITSIEHNRDLSFLRSVREVTGYVLVALNQFRYLPLENLRIIRGTKLYEDRYALAIFLNYRKDGNFGLQELGLKNLTEILNGGVYVDQNKFLCYADTIHWQDIVRNPWPSNLTLVSTNGSSGCGRCHKSCTGRCWGPTENHCQTLTRTVCAEQCDGRCYGPYVSDCCHRECAGGCSGPKDTDCFACMNFNDSGACVTQCPQTFVYNPTTFQLEHNFNAKYTYGAFCVKKCPHNFVVDSSSCVRACPSSKMEVEENGIKMCKPCTDICPKACDGIGTGSLMSAQTVDSSNIDKFINCTKINGNLIFLVTGIHGDPYNAIEAIDPEKLNVFRTVREITGFLNIQSWPPNMTDFSVFSNLVTIGGRVLYSGLSLLILKQQGITSLQFQSLKEISAGNIYITDNSNLCYYHTINWTTLFSTINQRIVIRDNRKAENCTAEGMVCNHLCSSDGCWGPGPDQCLSCRRFSRGRICIESCNLYDGEFREFENGSICVECDPQCEKMEDGLLTCHGPGPDNCTKCSHFKDGPNCVEKCPDGLQGANSFIFKYADPDRECHPCHPNCTQGCNGPTSHDCIYYPWTGHSTLPQHAKNSAAGSQSPALPPRLKEMKSQESAAGSKLVLRCETSSEYSSLRFKWFKNGNELNRKNKPQNIKIQKKPGKSELRINKASLADSGEYMCKVISKLGNDSASANITIVE
modifications: left off: small tags and cut ends
Regarding B4, the “effect” value in test [1] is reported as “dramatically reduced erbB receptor activation”. For the same molecule, in the test “Heparin column binding”, the “binding to heparin column” value is on record as “bound the heparin column” and the “NaCl concentration needed to elute from heparin column” value is 0.4 to 0.5 M.
